Data taken from article PMC8085985.

Target: Fervidobacterium islandicum AW‐1 SufS family cysteine desulfurase (FiSufS) (Fervidobacterium islandicum AW-1)
Experiment: SEC

With “Fervidobacterium islandicum AW‐1 SufS family cysteine desulfurase (FiSufS) (enzyme)” as the substance, how does the stoichiometry N read?
Its stoichiometry N is 2.
